Patent publication US6495314 (Scripps Research, dated 2002)

T1: Ac-CWAcp-PPPALPPKKR.amide, C3G-derived peptide designed for attachment to an affinity column (N-terminal acetyl; ε-aminocaproic acid (Acp, B) at position 3; C-terminal amide; on the column the Cys side chain is coupled to iodoacetyl agarose (Sulfolink))
T1 construct: also called Acetyl-CWAcp-C3G; Ac-CWBPPPALPPKKR.amide
T1 peptide: CWPPPALPPKKR

T2: control peptide Ac-CAcpYGGFL.amide (YGGFL = leucine enkephalin) (not fully specified (residue 1); also: Cys side chain coupled to Sulfolink agarose)
T2 construct: also called Ac-CBYGGFL.amide; Leucine-Enkephalin agarose column
T2 peptide: Ac-CYGGFL-NH2


What was measured:
[1] = molecular target: T1, Ac-CWAcp-PPPALPPKKR.amide, C3G-derived …; experiment: 19-member array on C3G peptide affinity column, MALDI MS readout
[2] = molecular target: T2, control peptide Ac-CAcpYGGFL.amide …; experiment: nine-member array on control peptide column, A280
Experimental: (§1) The column was then washed with 0.5 M NaCl buffer to remove nonspecific binding proteins from the column. Specifically bound protein analogues were then eluted with 1 M hydroxylamine bufffer. Amounts of eluted peptide were monitored by UV absorbance at 280 nm. This procedure was used for both the C3G peptide column and for the control column loaded with Ac-C-AcpYGGFL.amide.
(§2) Affinity chromatography of the arrays of protein analogues was carried out as follows. […] After incubation at room temperature for a period of 6–8 hours the column was washed with 0.5 M NaCl in 0.1 M sodium phosphate, pH 7.0 buffer (6×1 mL) to remove any non-specifically bound proteins. The first two 1 mL fractions were collected and immediately mixed with an equal volume of 1 M NH_2OH, 20 mM NH_4HCO_3, pH 5.5 buffer to cleave any thioester-containing protein analogues. […] Samples of the eluted fractions were monitored by UV absorbance at 280 nm. This procedure was used for both the C3G peptide column and for the control column loaded with Ac-C-Acp-YGGFL.amide. To accommodate MALDI analysis, both the 0.5M NaCl wash and 1 M NH_2OH fractions were desalted on a low pressure, disposable C-18 column, washed with HPLC buffer A and peptide fragments eluted with 1.5 mL 60% acetonitrile in water, 0.1% TFA.

[3] = molecular target: T1, Ac-CWAcp-PPPALPPKKR.amide, C3G-derived …; experiment: Example 2: nine-member array on C3G peptide affinity column, MALDI MS readout
Experimental: as §1, §2

| Binder | binding result [1] | binding result [2] | binding result [3] |
| --- | --- | --- | --- |
| c-Crk N-terminal SH3 domain (134-191) analogue, L^151P^152 replaced by Gly-[COS]-βAla (other, not fully specified; Gly-[COS]-βAla unit (-NH-CH2-CO-S-CH2-CH2-CO-) in place of L151-P152; backbone thioester, Positions count on murine c-Crk; X = -S-CH2CH2-CO- unit; Tested crude in a pooled array; also called LP) AEYVRALFDFNGNDEEDGXFKKGDILRIRDKPEEQWWNAEDSEGKRGMIPVPYVEKYR | binds |  |  |
| c-Crk N-terminal SH3 domain (134-191) analogue, dipeptide FK (153-154) replaced by Gly-[COS]-βAla (other, not fully specified; Gly-[COS]-βAla unit (-NH-CH2-CO-S-CH2-CH2-CO-) in place of F153-K154; backbone thioester, It is one of the 19 dipeptide positions within c-Crk(146-165); Positions count on murine c-Crk; X = -S-CH2CH2-CO- unit; Tested crude in a pooled array) AEYVRALFDFNGNDEEDLPGXKGDILRIRDKPEEQWWNAEDSEGKRGMIPVPYVEKYR | no binding |  |  |
| c-Crk N-terminal SH3 domain (134-191) analogue, dipeptide ED (149-150) replaced by Gly-[COS]-βAla (other, not fully specified; Gly-[COS]-βAla unit (-NH-CH2-CO-S-CH2-CH2-CO-) in place of E149-D150; backbone thioester, Positions count on murine c-Crk; X = -S-CH2CH2-CO- unit; Tested crude in a pooled array) AEYVRALFDFNGNDEGXLPFKKGDILRIRDKPEEQWWNAEDSEGKRGMIPVPYVEKYR | no binding |  |  |
| c-Crk N-terminal SH3 domain (134-191) analogue, dipeptide GD (156-157) replaced by Gly-[COS]-βAla (other, not fully specified; Gly-[COS]-βAla unit (-NH-CH2-CO-S-CH2-CH2-CO-) in place of G156-D157; backbone thioester, G156 stays Gly; Positions count on murine c-Crk; X = -S-CH2CH2-CO- unit; also called Gly-SβAla analogue) AEYVRALFDFNGNDEEDLPFKKGXILRIRDKPEEQWWNAEDSEGKRGMIPVPYVEKYR |  | no binding | no binding |
| c-Crk N-terminal SH3 domain (134-191) analogue, I^161R^162 replaced by Gly-[COS]-βAla (other, not fully specified; Gly-[COS]-βAla unit (-NH-CH2-CO-S-CH2-CH2-CO-) in place of I161-R162; backbone thioester, Positions count on murine c-Crk; X = -S-CH2CH2-CO- unit; also called IR; Gly-SβAla analogue) AEYVRALFDFNGNDEEDLPFKKGDILRGXDKPEEQWWNAEDSEGKRGMIPVPYVEKYR | binds | no binding |  |
| c-Crk N-terminal SH3 domain (134-191) analogue, N^146D^147 replaced by Gly-[COS]-βAla (other, not fully specified; Gly-[COS]-βAla unit (-NH-CH2-CO-S-CH2-CH2-CO-) in place of N146-D147; backbone thioester, Positions count on murine c-Crk; X = -S-CH2CH2-CO- unit; Tested crude in a pooled array; also called ND) AEYVRALFDFNGGXEEDLPFKKGDILRIRDKPEEQWWNAEDSEGKRGMIPVPYVEKYR | binds |  |  |
| c-Crk N-terminal SH3 domain (134-191) analogue, dipeptide RI (160-161) replaced by Gly-[COS]-βAla (other, not fully specified; Gly-[COS]-βAla unit (-NH-CH2-CO-S-CH2-CH2-CO-) in place of R160-I161; backbone thioester, Positions count on murine c-Crk; X = -S-CH2CH2-CO- unit; also called Gly-SβAla analogue) AEYVRALFDFNGNDEEDLPFKKGDILGXRDKPEEQWWNAEDSEGKRGMIPVPYVEKYR | no binding | no binding |  |
| c-Crk N-terminal SH3 domain (134-191) analogue, dipeptide LR (159-160) replaced by Gly-[COS]-βAla (other, not fully specified; Gly-[COS]-βAla unit (-NH-CH2-CO-S-CH2-CH2-CO-) in place of L159-R160; backbone thioester, Positions count on murine c-Crk; X = -S-CH2CH2-CO- unit; also called Gly-SβAla analogue) AEYVRALFDFNGNDEEDLPFKKGDIGXIRDKPEEQWWNAEDSEGKRGMIPVPYVEKYR | no binding | no binding |  |
| c-Crk N-terminal SH3 domain (134-191) analogue, D^147E^148 replaced by Gly-[COS]-βAla (other, not fully specified; Gly-[COS]-βAla unit (-NH-CH2-CO-S-CH2-CH2-CO-) in place of D147-E148; backbone thioester, Positions count on murine c-Crk; X = -S-CH2CH2-CO- unit; Tested crude in a pooled array; also called DE) AEYVRALFDFNGNGXEDLPFKKGDILRIRDKPEEQWWNAEDSEGKRGMIPVPYVEKYR | binds |  |  |
| c-Crk N-terminal SH3 domain (134-191) analogue, dipeptide KG (155-156) replaced by Gly-[COS]-βAla (other, not fully specified; Gly-[COS]-βAla unit (-NH-CH2-CO-S-CH2-CH2-CO-) in place of K155-G156; backbone thioester, It is one of the 19 dipeptide positions within c-Crk(146-165); Positions count on murine c-Crk; X = -S-CH2CH2-CO- unit; Tested crude in a pooled array) AEYVRALFDFNGNDEEDLPFKGXDILRIRDKPEEQWWNAEDSEGKRGMIPVPYVEKYR | no binding |  |  |
| c-Crk N-terminal SH3 domain (134-191) analogue, dipeptide KK (154-155) replaced by Gly-[COS]-βAla (other, not fully specified; Gly-[COS]-βAla unit (-NH-CH2-CO-S-CH2-CH2-CO-) in place of K154-K155; backbone thioester, It is one of the 19 dipeptide positions within c-Crk(146-165); Positions count on murine c-Crk; X = -S-CH2CH2-CO- unit; Tested crude in a pooled array) AEYVRALFDFNGNDEEDLPFGXGDILRIRDKPEEQWWNAEDSEGKRGMIPVPYVEKYR | no binding |  |  |
| c-Crk N-terminal SH3 domain (134-191) analogue, R^162D^163 replaced by Gly-[COS]-βAla (other, not fully specified; Gly-[COS]-βAla unit (-NH-CH2-CO-S-CH2-CH2-CO-) in place of R162-D163; backbone thioester, Positions count on murine c-Crk; X = -S-CH2CH2-CO- unit; also called RD; Gly-SβAla analogue) AEYVRALFDFNGNDEEDLPFKKGDILRIGXKPEEQWWNAEDSEGKRGMIPVPYVEKYR | binds | no binding |  |
| c-Crk N-terminal SH3 domain (134-191) analogue, K^164P^165 replaced by Gly-[COS]-βAla (other, not fully specified; Gly-[COS]-βAla unit (-NH-CH2-CO-S-CH2-CH2-CO-) in place of K164-P165; backbone thioester, Positions count on murine c-Crk; X = -S-CH2CH2-CO- unit; also called KP; Gly-SβAla analogue) AEYVRALFDFNGNDEEDLPFKKGDILRIRDGXEEQWWNAEDSEGKRGMIPVPYVEKYR | binds | no binding |  |
| c-Crk N-terminal SH3 domain (134-191) analogue, dipeptide PF (152-153) replaced by Gly-[COS]-βAla (other, not fully specified; Gly-[COS]-βAla unit (-NH-CH2-CO-S-CH2-CH2-CO-) in place of P152-F153; backbone thioester, It is one of the 19 dipeptide positions within c-Crk(146-165); Positions count on murine c-Crk; X = -S-CH2CH2-CO- unit; Tested crude in a pooled array) AEYVRALFDFNGNDEEDLGXKKGDILRIRDKPEEQWWNAEDSEGKRGMIPVPYVEKYR | no binding |  |  |
| c-Crk N-terminal SH3 domain (134-191) analogue, dipeptide DL (150-151) replaced by Gly-[COS]-βAla (other, not fully specified; Gly-[COS]-βAla unit (-NH-CH2-CO-S-CH2-CH2-CO-) in place of D150-L151; backbone thioester, Positions count on murine c-Crk; X = -S-CH2CH2-CO- unit; Tested crude in a pooled array) AEYVRALFDFNGNDEEGXPFKKGDILRIRDKPEEQWWNAEDSEGKRGMIPVPYVEKYR | no binding |  |  |
